Results as given in patent publication CN117255804A (GENSCRIPT NANJING CO LTD, dated 2023).

B1: 382A3E3-VH1-VL3 (antibody, IgG4, V domains shown)
VH: EVQLVESGGGLVQPGGSLRLSCAASGFTFSDYGMSWVRQAPGKGLEWVSFISNVAYGIFYADTVTGRFTISRDNAKNSLYLQMNSLRAEDTAVYYCARDELGRFDYWGQGTLVTVSS
VL: DIQMTQSPSSLSASVGDRVTITCHVSQNINIWLSWYQQKPGKAPKLLIYKASNLHTGVPSRFSGSGSGTDFTLTISSLQPEDFATYYCQQGQTFPRTFGGGTKVEIK
notes: Humanized mAb; Only VH and VL are tied to it
B2: 379E7A6-VH1-VL1 (antibody, IgG4, V domains shown)
VH: EVQLLESGGGLVQPGGSLRLSCAASGFTFSDYGMAWVRQAPGKGLEWVSFISNVAYSKFYVDTVTGRFTISRDNSKNTLYLQMNSLRAEDTAVYYCARDELGRFPYWGQGTLVTVSS
VL: DIQMTQSPSSLSASVGDRVTITCHVSHNINIWLNWYQQKPGKAPKLLIYKASNLHTGVPSRFSGSGSGTDFTFTISSLQPEDIATYYCQQGQTFPRTFGGGTKVEIK
notes: as for B1
B3: 382A3E3-VH1-VL2 (antibody, V domains shown)
VH: EVQLVESGGGLVQPGGSLRLSCAASGFTFSDYGMSWVRQAPGKGLEWVSFISNVAYGIFYADTVTGRFTISRDNAKNSLYLQMNSLRAEDTAVYYCARDELGRFDYWGQGTLVTVSS
VL: DIQMTQSPSTLSASVGDRVTITCHVSQNINIWLSWYQQKPGKAPKLLIYKASNLHTGVPSRFSGSGSGTEFTLTISSLQPDDFATYYCQQGQTFPRTFGGGTKVEIK
notes: Humanized mAb expressed in CHO-3E7
B4: 382A3E3-VH1-VL4 (antibody, IgG4, V domains shown)
VH: EVQLVESGGGLVQPGGSLRLSCAASGFTFSDYGMSWVRQAPGKGLEWVSFISNVAYGIFYADTVTGRFTISRDNAKNSLYLQMNSLRAEDTAVYYCARDELGRFDYWGQGTLVTVSS
VL: DIQMTQSPSSLSASVGDRVTITCHVSQNINIWLSWYQQKPGKVPKLLIYKASNLHTGVPSRFSGSGSGTDFTLTISSLQPEDVATYYCQQGQTFPRTFGQGTKVEIK
notes: as for B1
B5: 382A3E3-VH1-VL5 (antibody, IgG4, V domains shown)
VH: EVQLVESGGGLVQPGGSLRLSCAASGFTFSDYGMSWVRQAPGKGLEWVSFISNVAYGIFYADTVTGRFTISRDNAKNSLYLQMNSLRAEDTAVYYCARDELGRFDYWGQGTLVTVSS
VL: DIQLTQSPSFLSASVGDRVTITCHVSQNINIWLSWYQQKPGKAPKLLIYKASNLHTGVPSRFSGSGSGTEFTLTISSLQPEDFATYYCQQGQTFPRTFGGGTKVEIK
notes: as for B1
B6: 382A3E3-VH2-VL5 (antibody, IgG4, V domains shown)
VH: QVQLVESGGGVVQPGGSLRLSCAASGFTFSDYGMSWVRQAPGKGLEWVAFISNVAYGIFYADTVTGRFTISRDNSKNTLYLQMNSLRAEDTAVYYCAKDELGRFDYWGQGTLVTVSS
VL: DIQLTQSPSFLSASVGDRVTITCHVSQNINIWLSWYQQKPGKAPKLLIYKASNLHTGVPSRFSGSGSGTEFTLTISSLQPEDFATYYCQQGQTFPRTFGGGTKVEIK
notes: as for B1
B7: 379E7A6-VH1-VL2 (antibody, IgG4, V domains shown)
VH: EVQLLESGGGLVQPGGSLRLSCAASGFTFSDYGMAWVRQAPGKGLEWVSFISNVAYSKFYVDTVTGRFTISRDNSKNTLYLQMNSLRAEDTAVYYCARDELGRFPYWGQGTLVTVSS
VL: DIQMTQSPSTLSASVGDRVTITCHVSHNINIWLNWYQQKPGKAPKLLIYKASNLHTGVPSRFSGSGSGTEFTLTISSLQPDDFATYYCQQGQTFPRTFGGGTKVEIK
notes: as for B1
B8: 367C3A3-VH1-VL2 (antibody, IgG4, V domains shown)
VH: QVQLVQSGSELKKPGASVKVSCKASGYTFTDYSMHWVRQAPGQGLEWMGWINTETGEPTYADDFKGRFVFSLDTSVSTAYLQISSLKAEDTAVYYCARYDYAMDYWGQGTLVTVSS
VL: DIQMTQSPSTLSASVGDRVTITCKASQDVSSAVAWYQQKSGKAPKLLIYWASIRHTGVPSRFSGSGSGTEFTLTISSLQPDDFATYYCQQRYTTPPTFGGGTKVEIK
notes: as for B1
B9: 367C3A3-VH2-VL1 (antibody, IgG4, V domains shown)
VH: QVQLVQSGAEVKKPGASVKVSCKASGYTFTDYSMHWVRQAPGQRLEWMGWINTETGEPTYADDFKGRVTITRDTSASTAYMELSSLRSEDTAVYYCARYDYAMDYWGQGTLVTVSS
VL: DIQMTQSPSSLSASVGDRVTITCKASQDVSSAVAWYQQKPGKAPKLLIYWASIRHTGVPSRFSGSGSGTDFTLTISSLQPEDFATYYCQQRYTTPPTFGGGTKVEIK
notes: as for B1
B10: 367C3A3-VH2-VL2 (antibody, IgG4, V domains shown)
VH: QVQLVQSGAEVKKPGASVKVSCKASGYTFTDYSMHWVRQAPGQRLEWMGWINTETGEPTYADDFKGRVTITRDTSASTAYMELSSLRSEDTAVYYCARYDYAMDYWGQGTLVTVSS
VL: DIQMTQSPSTLSASVGDRVTITCKASQDVSSAVAWYQQKSGKAPKLLIYWASIRHTGVPSRFSGSGSGTEFTLTISSLQPDDFATYYCQQRYTTPPTFGGGTKVEIK
notes: as for B1

target: T1, 人4-1BB (human, UniProt Q07011 24-255); assay: FACS on HEK293 cells expressing human 4-1BB, 1.0 ug/ml
T1 construct: whole, on cells; also called TNFRSF9; CD137
T1 sequence (Q07011 24-255): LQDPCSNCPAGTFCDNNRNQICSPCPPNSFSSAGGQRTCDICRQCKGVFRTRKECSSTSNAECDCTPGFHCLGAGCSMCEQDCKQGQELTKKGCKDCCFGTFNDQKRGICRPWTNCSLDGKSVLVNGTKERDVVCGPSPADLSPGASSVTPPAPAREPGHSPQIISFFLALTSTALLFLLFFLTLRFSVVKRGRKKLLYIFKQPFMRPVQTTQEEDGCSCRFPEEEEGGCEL

Binding result, binds:
B1, B2, B3, B4, B5, B6, B7, B8, B9, B10
